Measurements reported in article PMC11721465.

Assays:
[1] = biological target: TREM2 (19–134) F74D, biotinylated (human) (UniProt Q9NZC2); assay: BLI; biotinylated TREM2 WT or variant immobilised on SA biosensors; C1q 62.5–1000 nM; PBS with 0.1% BSA and 0.005% Tween-20; 1:1 kinetic fits
[2] = biological target: TREM2 (19–134) L71D, biotinylated (human) (UniProt Q9NZC2); assay: as above
[3] = biological target: TREM2 (19–134) L75D, biotinylated (human) (UniProt Q9NZC2); assay: as above
[4] = biological target: TREM2 (19–134) M41D, biotinylated (human) (UniProt Q9NZC2); assay: as above
[5] = biological target: TREM2 (19–134) R122D/K123D, biotinylated (human) (UniProt Q9NZC2); assay: as above
[6] = biological target: TREM2 (19–134) R47H, biotinylated (human) (UniProt Q9NZC2); assay: as above
[7] = biological target: TREM2 (19–134) R62H, biotinylated (human) (UniProt Q9NZC2); assay: as above
[8] = biological target: TREM2 (19–134) R76D, biotinylated (human) (UniProt Q9NZC2); assay: as above
[9] = biological target: TREM2 (19–134) T85D, biotinylated (human) (UniProt Q9NZC2); assay: as above
[10] = biological target: TREM2 (19–134) WT, biotinylated (human) (UniProt Q9NZC2); assay: as above
[11] = biological target: TREM2 (19–134) WT, biotinylated (human) (UniProt Q9NZC2); assay: BLI; sequential competition: biotinylated TREM2 WT on SA biosensors dipped into a first ligand or no ligand, then buffer, then a second ligand; binding of the second ligand = response at end minus beginning of Association 2
[12] = biological target: C1q (Homo sapiens) (UniProt P02745); settings: cited from earlier work
[13] = biological target: TREM2 (19–134) D87N, biotinylated (human) (UniProt Q9NZC2); assay: BLI; biotinylated TREM2 WT or variant immobilised on streptavidin (SA) biosensors; apoE in solution (apoE4 0.012–50 µM); PBS with 0.1% BSA and 0.005% Tween-20; double-reference subtraction; steady-state analysis
Chain of TREM2 (19–134) D87N, biotinylated (human) (Q9NZC2 19-134 D87N): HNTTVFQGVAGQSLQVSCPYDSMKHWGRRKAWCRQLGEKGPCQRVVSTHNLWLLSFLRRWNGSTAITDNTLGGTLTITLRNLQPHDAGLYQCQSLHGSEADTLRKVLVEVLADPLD

Chain of TREM2 (19–134) WT, biotinylated (human) (Q9NZC2 19-134): as the sequence (Q9NZC2 19-134 D87N) above, with N69D counted along it
Chain of C1q (Homo sapiens) (P02745 23-245, chain 1 of 3): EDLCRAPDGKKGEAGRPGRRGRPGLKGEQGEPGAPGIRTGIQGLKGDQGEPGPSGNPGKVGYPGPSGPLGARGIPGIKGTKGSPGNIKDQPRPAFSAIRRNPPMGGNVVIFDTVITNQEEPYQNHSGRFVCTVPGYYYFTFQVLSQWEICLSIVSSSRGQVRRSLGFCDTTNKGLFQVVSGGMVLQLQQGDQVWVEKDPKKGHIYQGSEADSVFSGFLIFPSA
Chain of C1q (Homo sapiens) (P02746 28-253, chain 2 of 3, further chain): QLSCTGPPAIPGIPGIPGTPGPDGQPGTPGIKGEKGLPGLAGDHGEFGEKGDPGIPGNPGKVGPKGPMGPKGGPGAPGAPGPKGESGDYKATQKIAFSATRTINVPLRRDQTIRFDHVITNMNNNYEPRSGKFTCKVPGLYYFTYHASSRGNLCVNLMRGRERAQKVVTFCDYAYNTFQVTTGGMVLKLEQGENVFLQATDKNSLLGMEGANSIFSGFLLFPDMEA
Chain of C1q (Homo sapiens) (P02747 29-245, chain 3 of 3, further chain): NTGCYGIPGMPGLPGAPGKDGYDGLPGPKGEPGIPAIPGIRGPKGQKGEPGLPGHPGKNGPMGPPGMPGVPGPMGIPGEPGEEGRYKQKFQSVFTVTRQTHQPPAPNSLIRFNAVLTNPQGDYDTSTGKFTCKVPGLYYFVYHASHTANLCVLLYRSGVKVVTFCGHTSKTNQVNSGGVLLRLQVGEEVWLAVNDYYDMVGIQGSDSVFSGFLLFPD
Chain of TREM2 (19–134) R76D, biotinylated (human) (Q9NZC2 19-134 R76D): as the sequence (Q9NZC2 19-134 D87N) above, with R58D, N69D counted along it
Chain of TREM2 (19–134) L75D, biotinylated (human) (Q9NZC2 19-134 L75D): as the sequence (Q9NZC2 19-134 D87N) above, with L57D, N69D counted along it
Chain of TREM2 (19–134) T85D, biotinylated (human) (Q9NZC2 19-134 T85D): as the sequence (Q9NZC2 19-134 D87N) above, with T67D, N69D counted along it
Chain of TREM2 (19–134) R122D/K123D, biotinylated (human) (Q9NZC2 19-134 R122D/K123D): as the sequence (Q9NZC2 19-134 D87N) above, with N69D, R104D, K105D counted along it
Chain of TREM2 (19–134) R62H, biotinylated (human) (Q9NZC2 19-134 R62H): as the sequence (Q9NZC2 19-134 D87N) above, with R44H, N69D counted along it
Chain of TREM2 (19–134) R47H, biotinylated (human) (Q9NZC2 19-134 R47H): as the sequence (Q9NZC2 19-134 D87N) above, with R29H, N69D counted along it
Chain of TREM2 (19–134) L71D, biotinylated (human) (Q9NZC2 19-134 L71D): as the sequence (Q9NZC2 19-134 D87N) above, with L53D, N69D counted along it
Chain of TREM2 (19–134) M41D, biotinylated (human) (Q9NZC2 19-134 M41D): as the sequence (Q9NZC2 19-134 D87N) above, with M23D, N69D counted along it
Chain of TREM2 (19–134) F74D, biotinylated (human) (Q9NZC2 19-134 F74D): as the sequence (Q9NZC2 19-134 D87N) above, with F56D, N69D counted along it
Chain of TREM2 (Q9NZC2 19-174): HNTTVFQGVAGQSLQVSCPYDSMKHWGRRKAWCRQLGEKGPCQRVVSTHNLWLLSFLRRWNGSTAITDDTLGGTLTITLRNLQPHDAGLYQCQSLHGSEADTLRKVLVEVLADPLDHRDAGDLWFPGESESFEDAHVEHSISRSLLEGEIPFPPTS

Substance Complement C1q (complex) has a Kd [1] of 0.11 µM, a Kd [2] of 0.058 µM and a Kd [3] of 0.11 µM. It also gave a Kd [4] of 2.54 µM, a Kd [5] of 0.82 µM and a Kd [6] of 0.18 µM. It also gave a Kd [7] of 1.66 µM, a Kd [8] of 13.8 µM and a Kd [9] of 0.11 µM. For the same substance, the Kd [10] was 0.65 µM, the percent decrease of apoE4 (500 nM) binding to TREM2 after pre-binding 1000 nM C1q [11] was 3% and the percent inhibition of oAβ42 (500 nM) binding to TREM2 after pre-binding 1000 nM C1q [11] was 22%.
In the case of “apolipoprotein E4 (from UniProt P02649 19-317) (ligand)”, the percent reduction of oAβ42 (500 nM) binding to TREM2 after pre-binding 10 µM apoE4 [11] is reported as 67%.
For TREM2 (from UniProt Q9NZC2), the Kd [12] is given as 0.00735 µM.
Work on “apolipoprotein E2 (from UniProt P02649 19-317) (ligand)” yielded a Kd [13] of 0.052 µM.
